The target of this assay is FcγR (on DIV 7 primary rat hippocampal cells, Erk phosphorylation assay).

On to “IgG immune complex (IgG-IC): pre-complexed mouse IgG and rat anti-mouse IgG, 1:1 ratio (w/w)”, for which the ratio of pErk to Erk (western blot, percentage of vehicle controls) in DIV 7 hippocampal cell cultures exposed for 30 min to IgG-IC at 10 or 100 μg/ml; increased at 10 μg/ml but not at 100 μg/ml was found to be 60.4.

The record behind these values is PMC5756609.
